Consider eleven molecules from patent US20100330094A1 (NOVIMMUNE S A, published 2010).

For orientation: Kd means the free concentration of one partner at which half of the binding sites on the other are occupied at equilibrium, for simple one-to-one binding.

The target in experiment [1] is T1, recombinant human IP-10 (hIP-10) (human, UniProt P02778 22-98).
T1 sequence (looked up): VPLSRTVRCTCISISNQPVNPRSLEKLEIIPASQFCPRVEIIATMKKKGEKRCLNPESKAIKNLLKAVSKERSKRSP
The experiment in a line: cell-based or functional assay.

Experiment [2] concerns the target T2, native human IP-10 (hIP-10) (human, UniProt P02778 22-98).
T2 sequence (looked up): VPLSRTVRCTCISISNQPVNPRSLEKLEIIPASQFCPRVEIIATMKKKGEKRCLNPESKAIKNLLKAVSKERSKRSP
As to the kind of experiment: cell-based or functional assay.

The target of experiment [3] is T3, hIP-10 immobilized on glycosaminoglycan (FITC-labeled heparin) (human, UniProt P02778 22-98).
T3 construct: mature; also called hIP-10 on GAG; hIP-10 immobilized on GAG
T3 sequence (looked up): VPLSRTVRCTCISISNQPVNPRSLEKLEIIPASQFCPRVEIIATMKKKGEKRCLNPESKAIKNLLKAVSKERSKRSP
The experiment in a line: capture assay: IgG captured on coated anti-human Fc, FITC-heparin pre-incubated with hIP-10 added, revealed with HRP-coupled anti-FITC Fab. As to the method: As with many chemokines, hIP-10 is able to oligomerize and bind to glycosaminoglycans (GAG) expressed at surface of cells such as endothelial cells. In order to make sure that the antibodies were able to bind to hIP-10 in this context, they were tested in the following assay. Maxisorb 96 well plates were coated with anti-human Fc (Jackson, West Grove, Pa.) as capturing reagent for the human IgG to be tested. FITC-labeled heparin (Sigma, St. Louis, Mo.) was used as a prototypic GAG and was incubated with hIP-10 before addition to the captured anti-hIP10 antibodies. […] As shown in FIG. 4 some antibodies were able to bind hIP-10 when bound to GAG whereas others were unable to do so probably because their epitope on hIP-10 was no longer accessible within the oligomeric structure.

Experiment [4] addresses T1, recombinant human IP-10 (hIP-10). The experiment in a line: SPR (Biacore 2000): IgG1 captured on anti-human IgG, IP-10 in solution, 25 C, 1:1 Langmuir fit. As to the method:
200RU (response unit) of a goat anti-human polyclonal IgG (ahIgG; Biacore AB, Uppsala, Sweden) were immobilized by EDC/NHS chemistry on a C1 Biacore chip. […] The surface was regenerated after each cycle by injection of 10 mM glycine pH=1.5 at 30 μL/min, for 30s followed by 1 min. of stabilization time in HBS-EP buffer.
Binding was measured by passing either hIP-10 (Peprotech, Rocky Hill N.J.) or a NusA-hIP-10 fusion protein at the following concentrations: 34.7 nM, 11.6 nM, 3.85 nM, 1.28 nM, 0.428 nM, 0.142 nM and 0 nM. All solutions were diluted in HBS-EP buffer (Biacore AB, Uppsala, Sweden). Injection was performed at 50 μl/min for 3 min. followed by 12 min. of dissociation time and the temperature was set at 25° C. […] Very similar values were obtained using rhIP-10 or the NusA-hIP-10 fusion, but better response signals were obtained with the fusion protein due to its larger size that induces a better response on the Biacore.
In general terms: Surface plasmon resonance follows binding to a sensor surface in real time, without labels.

B1: CC21R3P1_A2, IgG1 format (antibody, V domains shown)
VH: QLVESGGGLIQPGGSLRLSCAASGFSVSDTYMNWVRQAPGKGLEWVSSIYSDDSTYYADSVKGRFTISRDNSKNTLFLQINSLRAEDTAVYYCARDKEYVTSTGGAYYYFYYMDVWGQGTLVTVSS
VL: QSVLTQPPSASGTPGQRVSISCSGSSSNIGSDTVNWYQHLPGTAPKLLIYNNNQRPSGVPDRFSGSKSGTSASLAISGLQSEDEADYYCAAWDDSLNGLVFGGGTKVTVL
Regarding B1, in experiment [1], the “Calcium flux IC50 (nM); 10 nM rhIP-10” value was 9.8 nM and the “Chemotaxis IC50 (nM); 1 nM rhIP-10” value was found to be 3.2 nM. Also, the “Chemotaxis IC50 (nM); native hIP-10 at 0.6 nM” value (shortened to “Chemotaxis IC50 … at 0.6 nM”) in experiment [2] is 6.2 nM. Also, in experiment [3], the binding result is on record as “no binding”.

B2: CF1H1R3P3_G11, IgG1 format (antibody, V domains shown)
VH: QVQLVESGGGVVQPGRSLRLSCAASGFTFSNSGIHWVRQAPGKGLEWVAVISYDGSNKFYADSVKGRFTISRDNSKNTLYLQMNSLRAEDTAVYYCAKLRDNGEYLDYWGQGTLVTVSS
VL: NFMLTQPHSVSESPGKTVTISCTGSGGSIDRNYVQWYQQRPGSSPTTVIYEDNQRPSGVPDRFSGSIDSSSNSASLTISGLKTEDEADYYCQSYDPLPVWVFGGGTKLTVL
As to B2, in experiment [1], the “Calcium flux IC50 (nM); 10 nM rhIP-10” value came out at 7.9 nM and the “Chemotaxis IC50 (nM); 0.2 nM rhIP-10” value turned out to be 0.2 nM. The “Chemotaxis IC50 … at 0.6 nM” value in experiment [2] was 1.9 nM.

B3: CC21R3P1_F1, IgG1 format (antibody, V domains shown)
VH: QVQLVESGGGVVQPGRSHTLSCAASGFAFKNSGIHWVRQAPGKGLEWVAVISYDGSNKFYADSVKGRFTISRDNSQNTVYLQMTDLRPDDTAVYYCARDGSESEYLDYWGKGTLVTVSS
VL: NFMLTQPHSVSESPGKTVTISCTGSGGSIDRNYVQWYQQRPGSAPITVIYEDNQRPSGVPDRFSGSIDSSSNSASLTISGLRTDDEADYYCQSYDSINLWVFGGGTKVTVL
B3: in experiment [1], the “Calcium flux IC50 (nM); 10 nM rhIP-10” value worked out at 9.8 nM and the “Chemotaxis IC50 (nM); 1 nM rhIP-10” value stood at 3 nM. For the same molecule, in experiment [2], the “Chemotaxis IC50 … at 0.6 nM” value turned out to be 11 nM. The dissociation constant (Kd) in experiment [4] was 9.2 nM.

B4: CF1N1R3P4_C7, IgG1 format (antibody, V domains shown)
VH: QVQLVESGGGVVQPGRSLRLSCAASGFTFSNSGIHWVRQAPGKGLEWVAVISYDGSNKFYADSVKGRFTISRDNSKNTLYLQMNSLRAEDTAVYYCAKLRDNAEYTDYWGQGTLVTVSS
VL: NFMLTQPHSVSESPGKTVTISCTGSGGSIDRNYVQWYQQRPGSSPTTVIYEDNQRPSGVPDRFSGSIDSSSNSASLTISGLKTEDEADYYCQSYDPLPVWVFGGGTKLTVL
Regarding B4, in experiment [1], the “Calcium flux IC50 (nM); 10 nM rhIP-10” value amounted to 4.1 nM and the “Chemotaxis IC50 (nM); 0.2 nM rhIP-10” value worked out at 0.19 nM. In addition, the “Chemotaxis IC50 … at 0.6 nM” value in experiment [2] was 0.64 nM.

B5: CF1H1R3P4_B5, IgG1 format (antibody, V domains shown)
VH: QVQLVESGGGVVQPGRSLRLSCAASGFTFSNSGIHWVRQAPGKGLEWVAVISYDGSNKFYADSVKGRFTISRDNSKNTLYLQMNSLRAEDTAVYYCAKLRDNGEYLDYWGQGTLVTVSS
VL: NFMLTQPHSVSESPGKTVTISCTGSGGSIDRNYVQWYQQRPGSSPTTVIYEDNQRPSGVPDRFSGSIDSSSNSASLTISGLKTEDEADYYCQSYVETPEWVFGGGTKLTVL
Take B5: in experiment [1], the “Calcium flux IC50 (nM); 10 nM rhIP-10” value is 4.7 nM and the “Chemotaxis IC50 (nM); 0.2 nM rhIP-10” value came to 0.42 nM. The “Chemotaxis IC50 … at 0.6 nM” value in experiment [2] was found to be 1.2 nM.

B6: CF1A11R3P3_F3, IgG1 format (antibody, V domains shown)
VH: QVQLVESGGGVVQPGRSLRLSCAASGFTFSNSGIHWVRQAPGKGLEWVAVISYDGSNKFYADSVKGRFTISRDNSKNTLYLQMNSLRAEDTAVYYCAKLRDNGEYLDYWGQGTLVTVSS
VL: NFMLTQPHSVSESPGKTVTISCTGSGGSIDRNYVQWYQQRPGSAPITVIYEDNQRPSGVPDRFSGSIDSSSNSASLTISGLRTDDEADYYCQSYDSINLWVFGGGTKVTVL
B6: in experiment [1], the “Calcium flux IC50 (nM); 10 nM rhIP-10” value worked out at 5.9 nM and the “Chemotaxis IC50 (nM); 0.2 nM rhIP-10” value was 0.69 nM. The “Chemotaxis IC50 … at 0.6 nM” value in experiment [2] is 1.7 nM.

B7: CC21R3P1_H6, IgG1 format (antibody, V domains shown)
VH: QVQLVESGGGVAQSGKSLRLSCAASGFTFSNYGMHWVRQAPGKGLEWLAVISYDGSNRYYADSVKGRFTISRDNSNNTLNLQMSSLRAEDTALYYCAKDAGGPLDYWGKGTLVTVSS
VL: VLTQLTQPPSVSLAPGQTATITCGGDNIGRKSVHWYQQKPGQAPVLVVYDDTDRPSGIPERFSGSNSGNTATLTISRVEAGDEADYYCQVWDSSIDHSWVFGGGTKLTVL
As for B7, in experiment [1], the “Calcium flux IC50 (nM); 10 nM rhIP-10” value is greater than 200 nM and the “Chemotaxis IC50 (nM); 1 nM rhIP-10” value came to 75 nM.

B8: CC21R3P4_F4, IgG1 format (antibody, V domains shown)
VH: QVQLVESGGGVAHSGKSLRLSCAASGFTFSNYGMHWVRQAPGKGLEWLAVISYDGSNRYYADSVKGRFTISRDNSNNTLNLQMSSLRAEDTALYYCAKDAGGPLDYWGRGTLVTVSS
VL: SYVLTQPPSVSVAPGQMARITCGGNNIGDKSVQWYQQRPGQAPLLVVYDDSDRPSGIPERFSGSYSRNTATLTISRVEAGDEADYYCQVWDSSSDHPEVVFGGGTKLTVL
For B8, in experiment [1], the “Calcium flux IC50 (nM); 10 nM rhIP-10” value is greater than 200 nM and the “Chemotaxis IC50 (nM); 1 nM rhIP-10” value is 157 nM.

B9: CC21R3P1_E7, IgG1 format (antibody, V domains shown)
VH: QLVESGGGVVQPGRSLRLSCAASGFTFSTYGMHWVRQAPGKGLEWVAVISYDGGTKYYADSVKGRFTISRDNSMKTLYLQMNSLRTEDTAVYYCAKDLGDLPPGLDYWGQGTMVTVSS
VL: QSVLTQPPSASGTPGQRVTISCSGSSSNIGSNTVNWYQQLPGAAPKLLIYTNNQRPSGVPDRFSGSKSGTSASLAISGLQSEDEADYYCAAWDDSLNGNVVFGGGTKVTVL
For B9, in experiment [1], the “Calcium flux IC50 (nM); 10 nM rhIP-10” value was greater than 200 nM and the “Chemotaxis IC50 (nM); 1 nM rhIP-10” value was 56 nM.

B10: CB2R2P4_C3, IgG1 format (antibody, V domains shown)
VH: QVTLRESGPALVKPTQTLTLTCTFSGFSLTTSGMSVIWIRQPPGKALEWLARIDSDDEKHYNTSLKTRLAISKDTSKNQVVLTMTNMDPVDTGTYYCARLRAGSGPYVFDSWGQGTTVTVSS
VL: QSVLTQPPSASGTPGQRVTISCSGSSSNIGSNTVNWYQRLPGAAPQLLIYNNDQRPSGIPDRFSGSKSGTSGSLVISGLQSEDEADYYCASWDDSLNGRVFGGGTKLTVL
On to B10, for which, in experiment [1], the “Calcium flux IC50 (nM); 10 nM rhIP-10” value is greater than 200 nM and the “Chemotaxis IC50 (nM); 1 nM rhIP-10” value was found to be 33 nM.

B11: CB21R3P6_G7, IgG1 format (antibody, V domains shown)
VH: QVQLVQSGAEVKKPGSSVTVSCKASGGTFSSFSITWLRQAPGQGLEWMGEITPMFGIANYAQKFQGRVTISADESTSTAYMELSGLTSEDTAMYYCARDGRFDVSDLLTDKPKVTINYNGMDVWGQGTLVTVSS
VL: QSVLTQPPSASGTPGQRVTISCSGSSSNIGSNTVNWYQRLPGAAPQLLIYNNDQRPSGIPDRFSGSKSGTSGSLVISGLQSEDEADYYCASWDDSLNGRVFGGGTKLTVL
Take B11: in experiment [1], the “Calcium flux IC50 (nM); 10 nM rhIP-10” value turned out to be 6.2 nM and the “Chemotaxis IC50 (nM); 1 nM rhIP-10” value worked out at 8.8 nM. The “Chemotaxis IC50 … at 0.6 nM” value in experiment [2] came to 7.8 nM. Also, the binding result in experiment [3] is given as “no binding”.
